Earlier results in patent US9173901B2, “Compositions and methods of using lamellar bodies for modifying linear biological macromolecules” (LAMELLAR THERAPEUTICS LIMITED, priority 2004, dated 2015).

Tested on: CF patients
Settings: young patients with mild lung disease; six months course

B1: rhDNAse: recombinant human DNAse, marketed for thinning CF secretions (protein, UniProt P24855 23-282, looked up)
Deoxyribonuclease-1: LKIAAFNIQTFGETKMSNATLVSYIVQILSRYDIALVQEVRDSHLTAVGKLLDNLNQDAPDTYHYVVSEPLGRNSYKERYLFVYRPDQVSAVDSYYYDDGCEPCGNDTFNREPAIVRFFSRFTEVREFAIVPLHAAPGDAVAEIDALYDVYLDVQEKWGLEDVMLMGDFNAGCSYVRPSQWSSIRLWTSPTFQWLIPDSADTTATPTHCAYDRIVVAGMLLRGAVVPDSALPFNFQAAYGLSDQLAQAISDHYPVEVMLK
benefit in FEVI: 3%
decrease in frequency of intravenous antibiotic courses: 34%
